This assay concerns the target T1, GP-1 (human, UniProt Q14242).
T1 chain: QATEYEYLDYDFLPETEPP
Nature of the assay: SPR.

B1: SelK1 (antibody, V domains shown)
VH: QVQLQQSGPGLVKPSQTLSLTCAISGDSVSSNIAAWHWIRLSPSRGLEWLGRTYYRRSKWNYDYALSVKSRININPDTSKNLFSLQLNSVTPEDTAVYYCTRGGGRAHSAWGQGTLVTVSS
VL: EIVLTQSPGTLSVSPGERATLSCRASQSVSRSHLAWYQQKPGQAPRLLIFGASSRATGIPDRFSGSGSGTDFTLTISRLEPEDFAVYYCQQYGRPGVTFGQGTKVEIK
Consider B1, for which the binding result was “no binding”.

The values are drawn from EP3388527.
